Key:
[1] = biological target: T1, σ^HrdB (purified protein, 55.9 kDa) (S. coelicolor, UniProt P18183 1-511); assay: SEC
T1 sequence: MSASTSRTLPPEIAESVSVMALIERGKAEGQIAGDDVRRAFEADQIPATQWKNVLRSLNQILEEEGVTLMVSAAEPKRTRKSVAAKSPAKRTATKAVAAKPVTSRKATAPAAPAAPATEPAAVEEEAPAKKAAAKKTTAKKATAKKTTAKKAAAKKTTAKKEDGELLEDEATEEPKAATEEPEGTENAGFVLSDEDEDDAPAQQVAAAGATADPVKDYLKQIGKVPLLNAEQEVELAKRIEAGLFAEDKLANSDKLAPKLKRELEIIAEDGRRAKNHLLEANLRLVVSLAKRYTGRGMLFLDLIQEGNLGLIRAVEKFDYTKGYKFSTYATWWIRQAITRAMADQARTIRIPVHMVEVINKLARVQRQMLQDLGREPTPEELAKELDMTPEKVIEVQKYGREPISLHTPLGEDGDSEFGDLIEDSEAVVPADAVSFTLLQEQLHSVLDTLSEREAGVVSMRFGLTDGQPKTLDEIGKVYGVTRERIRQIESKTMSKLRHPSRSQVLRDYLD

SEC = biological target: the molecule itself; assay: SEC
[2] = biological target: T2, His6-σ^HrdB σ2 fragment (amino acids 211–347) (S. coelicolor, UniProt P18183 211-347); assay: […]
T2 sequence: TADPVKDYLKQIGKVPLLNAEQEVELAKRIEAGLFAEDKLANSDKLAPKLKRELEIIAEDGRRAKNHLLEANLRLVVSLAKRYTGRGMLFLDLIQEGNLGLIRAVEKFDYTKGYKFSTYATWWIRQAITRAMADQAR

[3] = biological target: T3, His6-σ^HrdB σ2–σ4 fragment (amino acids 211–511) (S. coelicolor, UniProt P18183 211-511); assay: […]
T3 sequence: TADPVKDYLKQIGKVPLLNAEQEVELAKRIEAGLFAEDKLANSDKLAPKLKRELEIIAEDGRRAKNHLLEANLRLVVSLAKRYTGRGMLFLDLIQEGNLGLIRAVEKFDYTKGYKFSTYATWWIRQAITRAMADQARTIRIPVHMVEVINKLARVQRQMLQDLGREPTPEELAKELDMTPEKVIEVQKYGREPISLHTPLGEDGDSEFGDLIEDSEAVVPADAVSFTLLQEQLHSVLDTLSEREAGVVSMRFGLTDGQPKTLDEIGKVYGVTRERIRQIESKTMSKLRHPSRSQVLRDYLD

B1: RbpA^Sc (native, untagged purified protein, 14.1 kDa) (natural protein)
chain: MSERALRGTRLVVTSYETDRGIDLAPRQAVEYACEKGHRFEMPFSVEAEIPPEWECKVCGAQALLVDGDGPEEKKAKPARTHWDMLMERRTREELEEVLEERLAVLRSGAMNIAVHPRDSRKSA
In the case of B1, the binding result [1] is reported as “binds”, the “stoichiometry N” value (SEC) is reported as 2 and the binding result [2] is reported as “binds”. B1: binds [3].

Source: publication PMC3675491 (Nucleic Acids Research, 2013)
